Results taken from publication PMC3642079.

B1: unnamed (parent)
chain 1: MNLEGGGRGGEFGMSAVSCGNGKLRQWLIDQIDSGKYPGLVWENEEKSIFRIPWKHAGKQDYNREEDAALFKAWALFKGKFREGIDKPDPPTWKTRLRCALNKSNDFEELVERSQLDISDPYKVYRIVPEGAKKGAKQLTLEDPQMSMSHPYTMTTPYPSLPAQQVHNYMMPPLDRSWRDYVPDQPHPEIPYQCPMTFGPRGHHWQGPACENGCQVTGTFYACAPPESQAPGVPTEPSIRSAEALAFSDCRLHICLYYREILVKELTTSSPEGCRISHGHTYDASNLDQVLFPYPEDNGQRKNIEKLLSHLERGVVLWMAPDGLYAKRLCQSRIYWDGPLALCNDRPNKLERDQTCKLFDTQQFLSELQAFAHHGRSLPRFQVTLCFGEEFPDPQRQRKLITAHVEPLLARQLYYFAQQNSGHFLRGYDLPEHISNPEDYHRSIRHSSIQE
chain 2: LILDSGLDTQHILCFVMAARQRLQDIRRGP
B2: unnamed (parent)
chain 1: MCDRNGGRRLRQWLIEQIDSSMYPGLIWENEEKSMFRIPWKHAGKQDYNQEVDASIFKAWAVFKGKFKEGDKAEPATWKTRLRCALNKSPDFEEVTDRSQLDISEPYKVYRIVPEEEQKCKLGVATAGCVNEVTEMECGRSEIDELIKEPSVDDYMGMIKRSPSPPEACRSQLLPDWWAQQPSTGVPLVTGYTTYDAHHSAFSQMVISFYYGGKLVGQATTTCPEGCRLSLSQPGLPGTKLYGPEGLELVRFPPADAIPSERQRQVTRKLFGHLERGVLLHSSRQGVFVKRLCQGRVFCSGNAVVCKGRPNKLERDEVVQVFDTSQFFRELQQFYNSQGRLPDGRVVLCFGEEFPDMAPLRSKLILVQIEQLYVRQLAEEAGKSCGAGSVMQAPEEPPPDQVFRMFPDICASHQRSFFRENQQITV
chain 2: B1 chain 2

Variants of: B1
Test: GST pull-down of S35-radiolabeled in vitro translated protein
Conditions: with partner chain of the complex shown; 5% of IVT input (input lane = 5 RBU); GST control lane = 0.5 RBU; parent: 14.1
For chain 2 R20G R22G, the response was 4.9 RBU.
chain 2 C14A showed a response of 14 RBU.
chain 2 F15A gave a response of 0.5 RBU.

Variants of: B2
Test: as above
Conditions: with partner chain of the complex shown; 5% of IVT input (input lane = 5 RBU); GST control lane = 0.4 RBU; parent: 3.9
Work on chain 2 C14A yielded a response of 3.2 RBU.
In the case of chain 2 F15A, the response is reported as 0.6 RBU.
With chain 2 R20G R22G the response was 0.7 RBU.
